From patent US20190119345A1 (published 2019)

B1: KYK-1 antibody (antibody, V domains shown)
VH: EVQLVESGGGVVQPGGSLRLSCAASGFTFSSYGMHWVRQAPGKGLEWVAFIRYDGSNKYYADSVKGRFTISRDNSKNTLYLQMNSLRAEDTAVYYCAKDRFGYYLDYWGQGTLVTVSS
VL: QPVLTQPSSVSVAPGETARIPCGGDDIETKSVHWYQQKPGQAPVLVIYDDDDRPSGIPERFFGSNSGNTATLSISRVEAGDEADYYCQVWDDNNDEWVFGGGTQLTVL
B2: human NKG2D (receptor)
chain: IPLTESYCGPCPKNWICYKNNCYQFFDESKNWYESQASCMSQNASLLKVYSKEDQDLLKLVKSYHWMGLVHIPTNGSWQWEDGSILSPNLLTIIEMQKGDCALYASSFKGYIENCSTPNTYICMQRTV
B3: KYK-2 antibody (antibody, V domains shown)
VH: QVQLVESGGGLVKPGGSLRLSCAASGFTFSSYGMHWVRQAPGKGLEWVAFIRYDGSNKYYADSVKGRFTISRDNSKNTLYLQMNSLRAEDTAVYYCAKDRGLGDGTYFDYWGQGTTVTVSS
VL: QSALTQPASVSGSPGQSITISCSGSSSNIGNNAVNWYQQLPGKAPKLLIYYDDLLPSGVSDRFSGSKSGTSAFLAISGLQSEDEADYYCAAWDDSLNGPVFGGGTKLTVL

Tests used:
human NKG2D = biological target: B2; test: printed as 'binding coefficients'; method not stated
[1] = biological target: OMCP (WT OMCPBR, cowpox virus Brighton Red) (cowpox virus (Brighton Red strain)); test: as above

Binder: B1
- Kd (human NKG2D): 27 nM

Binder: B2
- Kd [1]: 0.1 nM

Binder: B3
- Kd (human NKG2D): 6 nM
